From article PMC12720783 (Protein Science : A Publication of the Protein Society, 2025)

B1: LcrV with a deletion of the N-terminal domain (domain or fragment)
chain: SKLREELAELTAELKIYSVIQAEINKHLSSGGTINIHDKSINLMDKNLYGYTDEEIFKASAEYKILEKMPQTTIQEGETEKKIVSIKNFLESEKKRTGALGNLKDSYSYNKDNNELSHFATTCSDKSRPLNDLVSQKTTQLSDITSRFNSAIEALNRFIQKYDSVMQRLLDDTSGK

Legend:
[1] = biological target: the molecule itself; test: […]; 50 mM NaCl, 30 mM phosphate buffer, 1 mM TCEP
LcrV, full length = LcrV, full length (Yersinia pseudotuberculosis, UniProt P23994 1-326); test: ITC; conditions: both partners purified
[2] = biological target: B1; test: ITC; […] ([…]) […] ([…]) […]; 25°C; 30 mM phosphate buffer, 50 mM NaCl, 1 mM TCEP, pH 7.0; conditions: both partners purified
[3] = biological target: LcrV with a deletion of the N-terminal 23 residues (Yersinia pseudotuberculosis, UniProt P23994 24-326); test: as above; conditions: both partners purified

| Binder | stoichiometry N [1] | Kd (LcrV, full length) [nM] | Kd [2] [nM] | Kd [3] [nM] |
| --- | --- | --- | --- | --- |
| B1 | 3 |  |  |  |
| LcrG, full length (natural protein) MKSSHFDEYDKTLKQAELAIADSDHRAKLLQEMCADIGLTPEAVMKIFAGRSAEEIKPAERELLDEIKRQRERQPQHPYDGKRPRKPTMMRGQII |  | 127 ± 63 | ≤ 10 | 54 ± 8.8 |
